target: Ffh (UniProt P0AGD7); test: inhibition assay; settings: not given
Sequence (P0AGD7 whole entry, the tested form may be a part): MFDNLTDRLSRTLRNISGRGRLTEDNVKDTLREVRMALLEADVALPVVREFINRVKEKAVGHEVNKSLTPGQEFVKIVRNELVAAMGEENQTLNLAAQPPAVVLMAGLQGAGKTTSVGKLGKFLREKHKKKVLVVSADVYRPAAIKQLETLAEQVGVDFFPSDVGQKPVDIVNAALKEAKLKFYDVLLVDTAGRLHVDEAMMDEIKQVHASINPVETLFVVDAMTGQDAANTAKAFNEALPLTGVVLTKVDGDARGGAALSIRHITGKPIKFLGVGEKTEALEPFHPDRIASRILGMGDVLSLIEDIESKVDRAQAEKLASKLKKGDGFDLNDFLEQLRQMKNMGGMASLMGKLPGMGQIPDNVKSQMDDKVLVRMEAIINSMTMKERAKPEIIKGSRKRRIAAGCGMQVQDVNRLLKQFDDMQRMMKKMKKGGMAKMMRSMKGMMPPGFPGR

wild-type FtsY(47-497) (from UniProt P10121) K447(246)A, sequence (P10121 47-497, change not shown): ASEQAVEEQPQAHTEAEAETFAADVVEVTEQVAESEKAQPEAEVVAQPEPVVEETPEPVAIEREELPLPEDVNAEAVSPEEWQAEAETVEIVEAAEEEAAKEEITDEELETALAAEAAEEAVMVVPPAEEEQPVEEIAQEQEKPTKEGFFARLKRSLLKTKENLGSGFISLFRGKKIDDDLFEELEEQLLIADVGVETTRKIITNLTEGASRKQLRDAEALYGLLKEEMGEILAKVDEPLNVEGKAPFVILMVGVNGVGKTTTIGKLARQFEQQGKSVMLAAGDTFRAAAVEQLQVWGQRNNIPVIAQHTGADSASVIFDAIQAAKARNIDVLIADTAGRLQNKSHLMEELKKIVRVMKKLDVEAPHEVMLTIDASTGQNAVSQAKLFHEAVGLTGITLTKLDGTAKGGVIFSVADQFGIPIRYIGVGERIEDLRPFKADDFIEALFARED
wild-type FtsY(47-497) (from UniProt P10121) K306(111)A, sequence (P10121 47-497, change not shown): as above
wild-type FtsY(47-497) (from UniProt P10121) T307(112)W, sequence (P10121 47-497, change not shown): as above
wild-type FtsY(47-497) (from UniProt P10121) K453(252)E, sequence (P10121 47-497, change not shown): as above
FtsY Arg386(191) mutant, sequence (P10121 47-497, change not shown): as above
wild-type FtsY(47-497) (from UniProt P10121) D479(278)A, sequence (P10121 47-497, change not shown): as above
wild-type FtsY(47-497) (from UniProt P10121) G454(253)W, sequence (P10121 47-497, change not shown): as above
wild-type FtsY(47-497) (from UniProt P10121) K312(117)A, sequence (P10121 47-497, change not shown): as above
wild-type FtsY(47-497) (from UniProt P10121) Q339(144)A, sequence (P10121 47-497, change not shown): as above
wild-type FtsY(47-497) (from UniProt P10121) D382(187)A, sequence (P10121 47-497, change not shown): as above
wild-type FtsY(47-497) (from UniProt P10121) D330(135)A, sequence (P10121 47-497, change not shown): as above
wild-type FtsY(47-497) (from UniProt P10121) R386(191)A, sequence (P10121 47-497, change not shown): as above
Ffh (from UniProt P0AGD7), sequence (P0AGD7 whole entry): as the sequence (P0AGD7 whole entry, the tested form may be a part) above

**Q.** For “wild-type FtsY(47-497) (from UniProt P10121) A336(141)W”, which Ki is on record?
**A.** The Ki was 160 nM.

**Q.** Which Ki does the source give for “wild-type FtsY(47-497) (from UniProt P10121) D330(135)A” here?
**A.** Its Ki is 2400 nM.

**Q.** Which Ki does the source give for “wild-type FtsY(47-497) (from UniProt P10121) D382(187)A” here?
**A.** The Ki was 27000 nM.

**Q.** Which Ki does the source give for “wild-type FtsY(47-497) (from UniProt P10121) D479(278)A” here?
**A.** The Ki was 2800 nM.

**Q.** For “wild-type FtsY(47-497) (from UniProt P10121) G454(253)W”, which Ki is on record?
**A.** The Ki was 4200 nM.

**Q.** For “wild-type FtsY(47-497) (from UniProt P10121) K306(111)A”, which Ki is on record?
**A.** Its Ki is 3500 nM.

**Q.** With “wild-type FtsY(47-497) (from UniProt P10121) K312(117)A” as the substance, how does the Ki read?
**A.** The Ki was 2400 nM.

**Q.** With “wild-type FtsY(47-497) (from UniProt P10121) K447(246)A” as the substance, how does the Ki read?
**A.** Its Ki is 11000 nM.

**Q.** With “wild-type FtsY(47-497) (from UniProt P10121) K453(252)E” as the substance, how does the Ki read?
**A.** Its Ki is 3100 nM.

**Q.** Which Ki does the source give for “wild-type FtsY(47-497) (from UniProt P10121) N302(107)A” here?
**A.** The Ki was 110 nM.

**Q.** With “wild-type FtsY(47-497) (from UniProt P10121) N302(107)W” as the substance, how does the Ki read?
**A.** Its Ki is 140 nM.

**Q.** Which Ki does the source give for “wild-type FtsY(47-497) (from UniProt P10121) Q339(144)A” here?
**A.** The Ki was 3900 nM.

**Q.** For “wild-type FtsY(47-497) (from UniProt P10121) R333(138)A”, which Ki is on record?
**A.** Its Ki is 240 nM.

**Q.** For “wild-type FtsY(47-497) (from UniProt P10121) R386(191)A”, which Ki is on record?
**A.** The Ki was 120 nM.

**Q.** For “wild-type FtsY(47-497) (from UniProt P10121) T307(112)A”, which Ki is on record?
**A.** Its Ki is 7100 nM.

**Q.** For “wild-type FtsY(47-497) (from UniProt P10121) T307(112)W”, which Ki is on record?
**A.** The Ki was 9900 nM.

target: Ffh (UniProt P0AGD7); test: other; GTP; inhibition assay; settings: domain or fragment

**Q.** With “FtsY Arg386(191) mutant (from UniProt P10121 47-497)” as the substance, how does the Ki read?
**A.** The Ki was 120 nM.

target: FtsY (Escherichia coli) (UniProt P10121); test: not given; settings: cited from earlier work
Sequence (P10121 2-497): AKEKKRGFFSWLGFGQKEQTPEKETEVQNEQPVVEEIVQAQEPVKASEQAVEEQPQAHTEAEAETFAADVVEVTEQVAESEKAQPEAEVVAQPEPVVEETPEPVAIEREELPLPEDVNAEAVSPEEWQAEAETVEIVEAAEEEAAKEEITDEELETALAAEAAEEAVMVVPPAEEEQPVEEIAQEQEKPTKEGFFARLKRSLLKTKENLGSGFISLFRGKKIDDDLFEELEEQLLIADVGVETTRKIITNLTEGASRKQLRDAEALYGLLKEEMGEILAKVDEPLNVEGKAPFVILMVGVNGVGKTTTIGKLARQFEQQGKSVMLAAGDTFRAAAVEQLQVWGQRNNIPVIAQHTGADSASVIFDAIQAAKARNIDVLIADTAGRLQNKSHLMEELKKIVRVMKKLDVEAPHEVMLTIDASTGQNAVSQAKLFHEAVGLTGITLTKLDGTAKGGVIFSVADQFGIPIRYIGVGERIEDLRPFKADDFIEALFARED

**Q.** Which Kd does the source give for Ffh (from UniProt P0AGD7) here?
**A.** The Kd was 16 nM.

Source: article PMC517823
